Results reported in US20050130265A1.

Biological target: Aiolos (mouse) (UniProt O08900)
Experiment: cell-based or functional assay

Sequence of Aiolos (mouse) (O08900 other isoform, or with tags, fused parts or gaps limits assumed): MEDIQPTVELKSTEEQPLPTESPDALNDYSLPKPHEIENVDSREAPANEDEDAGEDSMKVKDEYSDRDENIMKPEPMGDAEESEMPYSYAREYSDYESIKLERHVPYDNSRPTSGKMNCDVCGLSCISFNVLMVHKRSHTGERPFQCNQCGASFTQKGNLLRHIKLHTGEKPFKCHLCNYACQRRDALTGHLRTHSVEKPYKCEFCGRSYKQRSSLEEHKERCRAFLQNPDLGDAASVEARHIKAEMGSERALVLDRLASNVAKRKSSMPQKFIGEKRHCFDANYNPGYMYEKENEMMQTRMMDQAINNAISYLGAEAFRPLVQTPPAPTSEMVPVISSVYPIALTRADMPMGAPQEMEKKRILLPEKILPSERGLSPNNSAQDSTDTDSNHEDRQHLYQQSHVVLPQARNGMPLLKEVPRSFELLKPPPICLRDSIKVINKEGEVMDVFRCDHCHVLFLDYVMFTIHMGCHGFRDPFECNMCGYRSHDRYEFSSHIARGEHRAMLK

Q: With “Ikaros isoform Ik-6 (from UniProt Q03267 1-288)” as the substance, how does the CAT activity from the 4xIK-BS1-tkCAT reporter in transfected NIH-3T3 cells read?
A: 65 % reduction
